From article PMC2383916
Where two headings read alike, the source gives them in different places. Each block holds one molecule with its values, some of them ahead of it.

Assays:
GAL4-CRY2 (mouse) [1] = target: GAL4-CRY2 (mouse) (UniProt Q9R194); test: two-hybrid; mammalian two-hybrid in HER911 cells: Gal4 DBD fusion and VP16 fusion co-transfected with the GAL4-based luciferase reporter pFR-luc and pCMV-lacZ; luciferase normalised to beta-galactosidase; reporter alone set to 1
GAL4-PER2 (mouse) [2] = target: GAL4-PER2 (mouse) (UniProt O54943); test: as above
UniProt O54943, sequence (O54943 whole entry, the tested form may be a part): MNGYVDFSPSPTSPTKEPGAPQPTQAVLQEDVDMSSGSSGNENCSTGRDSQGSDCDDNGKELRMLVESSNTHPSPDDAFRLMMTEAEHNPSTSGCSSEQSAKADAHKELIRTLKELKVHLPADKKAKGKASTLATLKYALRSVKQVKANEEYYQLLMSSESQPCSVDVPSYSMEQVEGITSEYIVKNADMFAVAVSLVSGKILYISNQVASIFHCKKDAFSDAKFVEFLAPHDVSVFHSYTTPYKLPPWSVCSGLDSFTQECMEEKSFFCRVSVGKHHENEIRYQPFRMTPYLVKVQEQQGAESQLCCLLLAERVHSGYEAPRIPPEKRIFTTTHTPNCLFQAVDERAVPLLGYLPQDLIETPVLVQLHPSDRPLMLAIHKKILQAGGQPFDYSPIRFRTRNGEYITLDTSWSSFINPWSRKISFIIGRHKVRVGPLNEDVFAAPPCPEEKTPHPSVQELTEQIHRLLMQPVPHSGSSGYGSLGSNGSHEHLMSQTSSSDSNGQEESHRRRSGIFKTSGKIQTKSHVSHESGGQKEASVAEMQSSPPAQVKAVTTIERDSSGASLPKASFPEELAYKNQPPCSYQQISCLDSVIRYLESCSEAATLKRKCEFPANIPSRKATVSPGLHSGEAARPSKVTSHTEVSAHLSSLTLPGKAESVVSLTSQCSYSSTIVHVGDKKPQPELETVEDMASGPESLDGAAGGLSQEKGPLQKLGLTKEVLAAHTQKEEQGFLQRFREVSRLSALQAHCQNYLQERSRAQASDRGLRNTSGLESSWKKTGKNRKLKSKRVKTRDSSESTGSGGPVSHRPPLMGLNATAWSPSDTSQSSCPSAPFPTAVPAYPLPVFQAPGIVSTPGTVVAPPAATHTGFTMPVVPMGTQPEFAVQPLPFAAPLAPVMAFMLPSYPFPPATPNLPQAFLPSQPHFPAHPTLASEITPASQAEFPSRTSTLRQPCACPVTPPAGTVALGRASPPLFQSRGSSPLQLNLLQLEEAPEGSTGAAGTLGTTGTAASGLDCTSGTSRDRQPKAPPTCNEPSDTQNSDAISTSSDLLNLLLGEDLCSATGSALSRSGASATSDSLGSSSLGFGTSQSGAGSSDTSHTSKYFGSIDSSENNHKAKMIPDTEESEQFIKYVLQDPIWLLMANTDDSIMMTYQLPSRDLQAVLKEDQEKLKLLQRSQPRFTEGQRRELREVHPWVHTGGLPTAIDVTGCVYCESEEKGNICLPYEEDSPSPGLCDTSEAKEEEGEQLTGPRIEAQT

GAL4-CRY1 (mouse) [3] = target: GAL4-CRY1 (mouse) (UniProt P97784); test: as above
GAL4-CRY2 (mouse) [4] = target: GAL4-CRY2 (mouse) (UniProt Q9R194); test: two-hybrid; mammalian two-hybrid in cos-7 cells: Gal4 DBD fusion and VP16 fusion co-transfected with pFR-luc and pCMV-lacZ; reporter alone set to 1
GAL4-PER2 (mouse) [5] = target: GAL4-PER2 (mouse) (UniProt O54943); test: as above
GAL4-CRY1 (mouse) [6] = target: GAL4-CRY1 (mouse) (UniProt P97784); test: as above
GAL4-BMAL1 (mouse) [7] = test: two-hybrid; mammalian two-hybrid in HER911 cells: Gal4 DBD fusion and VP16 fusion co-transfected with the GAL4-based luciferase reporter pFR-luc and pCMV-lacZ; luciferase normalised to beta-galactosidase; reporter alone set to 1
[8] = target: GAL4-BMAL1ΔC-term (mouse); test: as above
GAL4-CLOCK (mouse) = GAL4-CLOCK (mouse) (UniProt O08785); test: as above
UniProt O08785, sequence (O08785 whole entry, the tested form may be a part): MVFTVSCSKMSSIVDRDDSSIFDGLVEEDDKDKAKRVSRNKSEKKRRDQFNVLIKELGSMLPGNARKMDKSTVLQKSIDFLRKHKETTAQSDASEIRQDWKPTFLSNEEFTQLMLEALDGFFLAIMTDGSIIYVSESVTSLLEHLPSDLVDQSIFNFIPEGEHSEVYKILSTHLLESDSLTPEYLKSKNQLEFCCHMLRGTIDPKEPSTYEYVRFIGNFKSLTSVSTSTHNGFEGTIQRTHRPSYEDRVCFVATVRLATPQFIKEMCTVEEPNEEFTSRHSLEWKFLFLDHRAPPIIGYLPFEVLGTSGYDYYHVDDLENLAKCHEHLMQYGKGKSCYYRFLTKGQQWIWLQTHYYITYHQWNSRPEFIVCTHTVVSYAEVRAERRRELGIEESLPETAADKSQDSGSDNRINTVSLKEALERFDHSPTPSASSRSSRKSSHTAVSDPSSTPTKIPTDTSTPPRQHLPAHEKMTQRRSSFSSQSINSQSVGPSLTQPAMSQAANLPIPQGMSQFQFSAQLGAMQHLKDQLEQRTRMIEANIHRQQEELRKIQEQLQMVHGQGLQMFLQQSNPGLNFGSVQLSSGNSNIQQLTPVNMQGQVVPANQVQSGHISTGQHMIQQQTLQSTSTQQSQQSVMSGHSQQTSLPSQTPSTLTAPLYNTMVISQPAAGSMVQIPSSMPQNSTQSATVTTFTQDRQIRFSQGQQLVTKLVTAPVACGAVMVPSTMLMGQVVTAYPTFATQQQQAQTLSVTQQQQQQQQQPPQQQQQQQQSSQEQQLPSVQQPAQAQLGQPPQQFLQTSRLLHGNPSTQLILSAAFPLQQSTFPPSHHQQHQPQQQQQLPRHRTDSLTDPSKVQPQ

[9] = target: GAL4-BMAL1ΔPAS B/C-term (mouse); test: as above
GAL4-BMAL1 (mouse) [10] = test: two-hybrid; mammalian two-hybrid in cos-7 cells: Gal4 DBD fusion and VP16 fusion co-transfected with pFR-luc and pCMV-lacZ; reporter alone set to 1
GAL4-BMAL1 (mouse) [11] = test: two-hybrid; mammalian two-hybrid in HER911 cells: Gal4 DBD fusion and VP16 fusion co-transfected with the GAL4-based luciferase reporter pFR-luc and pCMV-lacZ; luciferase normalised to beta-galactosidase; reporter alone set to 1; remark: listed apart in the source
[12] = target: GAL4-BMAL1ΔHLH/PAS A (mouse); test: as above
[13] = target: GAL4-BMAL1ΔC-term (mouse); test: as above; remark: listed apart in the source

Molecule: CLOCK-VP16 (from UniProt O08785 1-855) (natural protein)
fold luciferase activity over reporter alone (GAL4-PER2 (mouse) [2]): 110 fold
fold luciferase activity over reporter alone (GAL4-PER2 (mouse) [5]): 55 fold

B1: CRY2-VP16 (natural protein)
chain: MAAAAVVAATVPAQSMGADGASSVHWFRKGLRLHDNPALLAAVRGARCVRCVYILDPWFAASSSVGINRWRFLLQSLEDLDTSLRKLNSRLFVVRGQPADVFPRLFKEWGVTRLTFEYDSEPFGKERDAAIMKMAKEAGVEVVTENSHTLYDLDRIIELNGQKPPLTYKRFQALISRMELPKKPAVAVSSQQMESCRAEIQENHDDTYGVPSLEELGFPTEGLGPAVWQGGETEALARLDKHLERKAWVANYERPRMNANSLLASPTGLSPYLRFGCLSCRLFYYRLWDLYKKVKRNSTPPLSLFGQLLWREFFYTAATNNPRFDRMEGNPICIQIPWDRNPEALAKWAEGKTGFPWIDAIMTQLRQEGWIHHLARHAVACFLTRGDLWVSWESGVRVFDELLLDADFSVNAGSWMWLSCSAFFQQFFHCYCPVGFGRRTDPSGDYIRRYLPKLKGFPSRYIYEPWNAPESVQKAAKCIIGVDYPRPIVNHAETSRLNIERMKQIYQQLSRYRGLCLLASVPSCVEDLSHPVAEPGSSQAGSISNTGPRALSSGPASPKRKLEAAEEPPGEELTKRARVTEMPTQEPASKDS
fold luciferase activity over reporter alone (GAL4-BMAL1 (mouse) [10]): 70 fold
fold luciferase activity over reporter alone (GAL4-BMAL1 (mouse) [11]): 950 fold
fold luciferase activity over Gal4-Bmal1ΔHLH/PAS A alone [12]: 3 fold

The remaining lines, values ahead:

fold luciferase activity over reporter alone (GAL4-CRY2 (mouse) [1]): 10 fold
fold luciferase activity over reporter alone (GAL4-PER2 (mouse) [2]): 110 fold
fold luciferase activity over reporter alone (GAL4-CRY1 (mouse) [3]): 70 fold
fold luciferase activity over reporter alone (GAL4-CRY2 (mouse) [4]): 125 fold
fold luciferase activity over reporter alone (GAL4-PER2 (mouse) [5]): 2900 fold
fold luciferase activity over reporter alone (GAL4-CRY1 (mouse) [6]): 450 fold
Molecule: BMAL1-VP16 (natural protein)

fold luciferase activity over reporter alone (GAL4-BMAL1 (mouse) [7]): 1000 fold
fold luciferase activity over reporter alone [8]: 150 fold
fold luciferase activity over reporter alone (GAL4-CLOCK (mouse)): 75 fold
fold luciferase activity over reporter alone [9]: 5 fold
fold luciferase activity over reporter alone (GAL4-BMAL1 (mouse) [10]): 200 fold
Molecule: PER2-VP16 (from UniProt O54943 1-1257) (natural protein)

fold luciferase activity over reporter alone (GAL4-BMAL1 (mouse) [10]): 110 fold
fold luciferase activity over reporter alone (GAL4-BMAL1 (mouse) [11]): 750 fold
fold luciferase activity over reporter alone [13]: 50 fold
B2: CRY1-VP16 (natural protein)
chain: MGVNAVHWFRKGLRLHDNPALKECIQGADTIRCVYILDPWFAGSSNVGINRWRFLLQCLEDLDANLRKLNSRLFVIRGQPADVFPRLFKEWNITKLSIEYDSEPFGKERDAAIKKLATEAGVEVIVRISHTLYDLDKIIELNGGQPPLTYKRFQTLVSKMEPLEMPADTITSDVIGKCMTPLSDDHDEKYGVPSLEELGFDTDGLSSAVWPGGETEALTRLERHLERKAWVANFERPRMNANSLLASPTGLSPYLRFGCLSCRLFYFKLTDLYKKVKKNSSPPLSLYGQLLWREFFYTAATNNPRFDKMEGNPICVQIPWDKNPEALAKWAEGRTGFPWIDAIMTQLRQEGWIHHLARHAVACFLTRGDLWISWEEGMKVFEELLLDADWSINAGSWMWLSCSSFFQQFFHCYCPVGFGRRTDPNGDYIRRYLPVLRGFPAKYIYDPWNAPEGIQKVAKCLIGVNYPKPMVNHAEASRLNIERMKQIYQQLSRYRGLGLLASVPSNSNGNGGLMGYAPGENVPSCSSSGNGGLMGYAPGENVPSCSGGNCSQGSGILHYAHGDSQQTHSLKQGRSSAGTGLSSGKRPSQEEDAQSVGPKVQRQSSN
